Literature values, collected in PMC8469970.

Molecular target: Galectin-1 (Homo sapiens) (UniProt P09382)

Kd: 7 µM
Substance: Galectin-1 (from UniProt P09382)
